Data from PMC3664699.
Where “and” joins values, the source holds several entries; their conditions need not be identical. Identical values can stand only once. Like-named read-outs stand apart in the source and are kept apart here.

How the values were obtained:
[1] = molecular target: EndoH-DyLight (GluA2 ATD, EndoH-digested, DyLight-labeled); assay: fluorescence polarisation
[2] = molecular target: EndoH-digested GluA2S; assay: AUC
[3] = molecular target: EndoH-digested GluA2S; assay: AUC; remark: listed apart in the source
[4] = molecular target: EndoH-digested GluA2S; assay: AUC; remark: listed apart in the source
[5] = molecular target: EndoH-digested GluA2S; assay: AUC; remark: listed apart in the source
[6] = molecular target: EndoH-digested GluA2S; assay: AUC; remark: listed apart in the source
[7] = molecular target: EndoH-digested, FAM-labeled GluA2S; assay: AUC
[8] = molecular target: EndoH-digested, FAM-labeled GluA2S; assay: AUC; remark: listed apart in the source
[9] = molecular target: EndoH-digested, FAM-labeled GluA2S; assay: AUC; remark: listed apart in the source
[10] = molecular target: GluA2 ATD, GnTI−; assay: AUC
[11] = molecular target: GluA2L; assay: AUC
[12] = molecular target: GluA2S, GluA2 ATD with complex glycosylation (293T); assay: AUC
[13] = molecular target: GluA2S, GluA2 ATD with complex glycosylation (293T); assay: AUC; remark: listed apart in the source
[14] = molecular target: GluA2S-FAM; assay: AUC
[15] = molecular target: GluA3 (AMPA receptor amino-terminal domain); assay: AUC

EndoH-digested GluA2S, sequence (P19491 22-883): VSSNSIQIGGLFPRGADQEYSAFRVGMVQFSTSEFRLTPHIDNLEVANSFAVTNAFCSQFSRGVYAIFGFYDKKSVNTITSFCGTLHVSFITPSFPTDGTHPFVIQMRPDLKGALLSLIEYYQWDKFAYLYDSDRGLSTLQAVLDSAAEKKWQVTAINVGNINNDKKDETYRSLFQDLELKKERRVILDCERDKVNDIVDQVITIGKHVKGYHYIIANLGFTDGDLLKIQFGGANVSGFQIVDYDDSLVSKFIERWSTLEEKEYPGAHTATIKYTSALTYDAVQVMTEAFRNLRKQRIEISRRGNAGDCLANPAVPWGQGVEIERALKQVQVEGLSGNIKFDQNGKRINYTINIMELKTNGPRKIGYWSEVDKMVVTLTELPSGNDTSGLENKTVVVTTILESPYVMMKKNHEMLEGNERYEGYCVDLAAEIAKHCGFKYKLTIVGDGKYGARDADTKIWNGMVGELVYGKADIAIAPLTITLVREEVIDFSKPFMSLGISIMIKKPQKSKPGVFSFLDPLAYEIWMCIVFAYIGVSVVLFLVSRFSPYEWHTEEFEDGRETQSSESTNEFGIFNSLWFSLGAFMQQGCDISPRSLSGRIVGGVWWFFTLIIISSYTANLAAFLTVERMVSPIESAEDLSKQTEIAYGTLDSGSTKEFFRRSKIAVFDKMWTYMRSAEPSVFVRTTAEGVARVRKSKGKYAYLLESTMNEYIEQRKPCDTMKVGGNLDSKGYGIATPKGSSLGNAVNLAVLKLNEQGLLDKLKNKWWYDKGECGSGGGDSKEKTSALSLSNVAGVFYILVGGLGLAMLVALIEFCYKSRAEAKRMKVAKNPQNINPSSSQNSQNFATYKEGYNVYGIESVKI
EndoH-digested, FAM-labeled GluA2S, sequence (P19491 22-883): as above
GluA2S, GluA2 ATD with complex glycosylation (293T), sequence (P19491 22-883, one chain of several): as the sequence (P19491 22-883) above
EndoH-DyLight (GluA2 ATD, EndoH-digested, DyLight-labeled), sequence (P19491 22-883): as above
GluA3 (AMPA receptor amino-terminal domain), sequence (P19492 23-888): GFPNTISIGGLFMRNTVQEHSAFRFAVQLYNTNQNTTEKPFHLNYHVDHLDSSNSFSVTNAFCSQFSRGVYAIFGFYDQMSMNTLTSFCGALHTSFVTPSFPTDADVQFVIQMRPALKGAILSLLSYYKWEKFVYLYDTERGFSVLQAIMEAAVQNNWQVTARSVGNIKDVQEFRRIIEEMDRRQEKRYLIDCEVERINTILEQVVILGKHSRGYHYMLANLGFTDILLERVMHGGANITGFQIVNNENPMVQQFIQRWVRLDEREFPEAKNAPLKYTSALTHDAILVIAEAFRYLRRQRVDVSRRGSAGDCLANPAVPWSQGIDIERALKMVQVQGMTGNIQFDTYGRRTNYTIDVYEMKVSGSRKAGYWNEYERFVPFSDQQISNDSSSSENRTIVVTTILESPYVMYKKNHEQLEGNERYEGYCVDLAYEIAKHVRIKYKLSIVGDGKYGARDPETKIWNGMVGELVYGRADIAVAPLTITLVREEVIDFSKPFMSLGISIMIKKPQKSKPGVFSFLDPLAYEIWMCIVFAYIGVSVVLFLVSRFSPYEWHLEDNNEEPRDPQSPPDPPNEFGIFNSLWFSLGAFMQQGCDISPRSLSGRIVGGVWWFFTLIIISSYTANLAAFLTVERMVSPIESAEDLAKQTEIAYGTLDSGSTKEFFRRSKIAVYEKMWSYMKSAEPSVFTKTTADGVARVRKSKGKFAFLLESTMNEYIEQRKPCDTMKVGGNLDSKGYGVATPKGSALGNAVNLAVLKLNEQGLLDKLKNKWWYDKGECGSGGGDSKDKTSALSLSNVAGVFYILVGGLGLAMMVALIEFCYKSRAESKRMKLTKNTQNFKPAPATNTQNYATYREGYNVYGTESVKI
GluA2L, sequence (P19491 22-883): as the sequence (P19491 22-883) above
GluA2 ATD, GnTI−, sequence (P19491 22-883): as above
GluA2S-FAM, sequence (P19491 22-883): as above

With “EndoH-DyLight (GluA2 ATD, EndoH-digested, DyLight-labeled) (domain or fragment)” the Kd [1] was 0.0108 µM and 0.0113 µM and 0.00843 µM.

“EndoH-digested GluA2S (domain or fragment)” was tested, and the Kd [2] was 0.012 µM and 0.0083 µM and 0.01 µM, the Kd [3] was 0.012 µM and the Kd [4] was 0.017 µM. The Kd [5] was 0.03 µM, the Kd [6] was 0.16 µM and 0.284 µM and the stoichiometry N [6] was 2.

Work on “EndoH-digested, FAM-labeled GluA2S (domain or fragment)” yielded a Kd [7] of 0.013 µM, a Kd [8] of 0.01 µM and a Kd [9] of 0.0025 µM.

GluA2 ATD, GnTI− (domain or fragment) gave a Kd [10] of 0.011 µM.

GluA2L (domain or fragment) gave a Kd [11] of 0.0055 µM.

“GluA2S, GluA2 ATD with complex glycosylation (293T) (domain or fragment)” showed a Kd [12] of 0.0083 µM, a Kd [13] of 0.006 µM and a stoichiometry N [13] of 2.

With GluA2S-FAM (domain or fragment) the Kd [14] was 0.0149 µM.

Work on “GluA3 (AMPA receptor amino-terminal domain) (domain or fragment)” yielded a Kd [15] of 5.6 µM and a stoichiometry N [15] of 2.
